Laboratory results as given in the RNAGym collection of RNA variant scans (doi:10.1093/molbev/msab373).

B1: Azoarcus group I ribozyme (parent)
chain: GUGCCUUGCGCCGGGAAACCACGCAAGGGAUGGUGUCAAAUUCGGCGAAACCUAAGCGCCCGCCCGGGCGUAUGGCAACGCCGAGCCAAGCUUCGGCGCCUGCGCCGAUGAAGGUGUAGAGACUAGACGGCACCCACCUAAGGCAAACGCUAUGGUGAAGGCAUAGUCCAGGGAGUGGCGAAAGUCACACAAACCGG

Variants of: B1
Assay: reverse-splicing fitness (ratio to wild type); higher = more active; in vitro selection; Mg2+ level not given
Procedure, shortened: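 An in vitro group I ribozyme library with randomized positions was T7-transcribed and gel-purified. In triplicate, 10 pmol RNA in EPPS pH 7.5 was reacted with 50 pmoles of a 30-nt RNA substrate for 1 h at 37 °C across several added MgCl2 levels (1–48 mM), then stopped with EDTA. Products were reverse transcribed from a substrate-complementary primer, PCR-amplified and sequenced (HiSeq 4000). Fitness is a variant's read proportion after selection over that before, normalised to wild type.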

Variant | reverse-splicing fitness
C82G A111G C169G | 0.00859
C82G A111G C169U | 0.0143
C82G A111U A120C A145C C150A C169G | 0.00886
C82G A111U A120C A145C C150A C169U | 0.01
C82G A111U A120C A145C C150A C169A | 0.01
C82G A111U A120C C150G C169G U176A | 0.00766
C82G A111U A120C C150G C169G U176C | 0.00622
C82G A111U A120C C150G C169G U176G | 0.00747
C82G A111U A120C A145G C150A C169A U176G | 0.00968
C82G A111U A120C A145G C150A C169A U176C | 0.026
C82G A111U A120C A145G C150A C169A U176A | 0.02
C82G A111U A120C C150G U176G | 0.00396
C82G A111U A120C C150G U176A | 0.00531
C82G A111U A120C C150G U176C | 0.009
C82G A111G U176C | 0.279
C82G A111G U176A | 0.277
C82G A111G U176G | 0.0956
C82G A111U A120C A145C C150U C169A U176A | 0.0164
C82G A111U A120C A145C C150U C169A U176C | 0.0115
C82G A111U A120C A145C C150U C169A U176G | 0.00651
C82G A111U A120C A145U C169A U176A | 0.015

Variant | reverse-splicing fitness
C82G A111U A120C A145U C169A U176G | 0.00591
C82G A111U A120C A145U C169A U176C | 0.0142
C82G A111U A120C C150A U176C | 0.0231
C82G A111U A120C C150A U176G | 0.0115
C82G A111U A120C C150A U176A | 0.0138
C82G A111U A120C A145U C150A U176G | 0.00705
C82G A111U A120C A145U C150A U176A | 0.0101
C82G A111U A120C A145U C150A U176C | 0.018
C82G A111G A145U C150U C169G U176C | 0.0152
C82G A111G A145U C150U C169G U176A | 0.0142
C82G A111G A145U C150U C169G U176G | 0.00611
C82G A111U A120C A145C C150G U176C | 0.00843
C82G A111U A120C A145C C150G U176G | 0.00354
C82G A111U A120C A145C C150G U176A | 0.00451
C82G A111U A120C A145G C150G C169G | 0.00753
C82G A111U A120C A145G C150G C169U | 0.0106
C82G A111U A120C A145G C150G C169A | 0.00998
C82G A111U A120C A145G C150G U176G | 0.00789
C82G A111U A120C A145G C150G U176C | 0.0118
C82G A111U A120C A145G C150G U176A | 0.00813
C82G A111G C169U U176A | 0.0155

Variant | reverse-splicing fitness
C82G A111G C169U U176G | 0.00625
C82G A111G C169U U176C | 0.0177
C82G A111U A120C A145U C169G U176A | 0.0154
C82G A111U A120C A145U C169G U176C | 0.0213
C82G A111U A120C A145U C169G U176G | 0.00535
C82G A111U A120C A145C | 0.0408
C82G A111U A120C A145G | 0.0543
C82G A111U A120C A145U | 0.0517
C82G A111U A120C A145U C150A C169U | 0.00991
C82G A111U A120C A145U C150A C169A | 0.0103
C82G A111U A120C A145U C150A C169G | 0.00901
C82G A111U A120C C150U C169U U176A | 0.0146
C82G A111U A120C C150U C169U U176C | 0.0139
C82G A111U A120C C150A C169U U176A | 0.018
C82G A111U A120C C150A C169U U176C | 0.0159
C82G A111U A120C C150A C169U U176G | 0.00816
C82G A111U A120C A145G C150U C169A | 0.0111
C82G A111U A120C A145G C150U C169G | 0.00889
C82G A111U A120C A145G C150U C169U | 0.0134
C82G A111U A120C C150U C169G U176A | 0.0159
C82G A111U A120C C150U C169G U176C | 0.0194

Variant | reverse-splicing fitness
C82G A111U A120C C150U C169G U176G | 0.00625
C82G A111G C150G C169G U176C | 0.00922
C82G A111G C150G C169G U176A | 0.0106
C82G A111G C150G C169G U176G | 0.00613
C82G A111U A120C C150U C169A U176C | 0.0138
C82G A111U A120C C150U C169A U176G | 0.00644
C82G A111U A120C C150U C169A U176A | 0.0158
C82G A111G C150A C169G U176A | 0.0217
C82G A111G C150A C169G U176G | 0.00751
C82G A111G C150A C169G U176C | 0.0228
C82G A111G C169G U176C | 0.0239
C82G A111G C169G U176G | 0.0047
C82G A111G C169G U176A | 0.0197
C82G A111U A120C A145U C150G U176G | 0.00406
C82G A111U A120C A145U C150G U176A | 0.0058
C82G A111U A120C A145U C150G U176C | 0.00903
C82G A111U A120C A145C C150A U176G | 0.0066
C82G A111U A120C A145C C150A U176C | 0.0127
C82G A111U A120C A145C C150A U176A | 0.0111
C82G A111U A120C A145C C169U U176A | 0.0148
C82G A111U A120C A145C C169U U176G | 0.00455
